{"source": "patent US20240285573A1", "about": "“PHARMACEUTICAL COMPOSITION FOR PREVENTING OR TREATING DIABETIC EYE DISEASE COMPRISING SGLT-2 INHIBITOR” (priority 2021, published 2024)", "molecules": {"B1": {"name": "Ranibizumab (antibody, chains of the INN, looked up, V domains shown)", "VH": "EVQLVESGGGLVQPGGSLRLSCAASGYDFTHYGMNWVRQAPGKGLEWVGWINTYTGEPTYAADFKRRFTFSLDTSKSTAYLQMNSLRAEDTAVYYCAKYPYYYGTSHWYFDVWGQGTLVTVSS", "VL": "DIQLTQSPSSLSASVGDRVTITCSASQDISNYLNWYQQKPGKAPKVLIYFTSSLHSGVPSRFSGSGSGTDFTLTISSLQPEDFATYYCQQYSTVPWTFGQGTKVEIK", "notes": "LUCENTIS® purchased and administered as a positive control; anti-VEGF monoclonal antibody therapy"}}, "system": "diabetic retinopathy animal model", "assay": "Retinal fluorescein intensity (fundus imaging) in streptozotocin-induced diabetic retinopathy animal model", "format": "in vivo, Brown Norway rats (BN/SsN Slc)", "conditions": "relative to normal control G1 = 100%, STZ-induced rats, right eye, intravitreal, non-vascular regions of retina", "protocol": "Brown Norway rats (BN/SsN Slc) were used. […] Streptozotocin (STZ) was administered to animals determined to be healthy during the acclimation period, and blood sugar levels were measured on day 7 of administration. […] Streptozotocin was intravenously administered once at a dose of 60 mg/kg on the day of induction. G1 is a normal control in which diabetic retinopathy was not induced, G2 is a control in which diabetic retinopathy was induced and to which the vehicle of Comparative Example 1 was administered, and G3 and G4 are groups to which ranibizumab of Comparative Example 2 was administered as a positive control material, and G5 to G9 are groups to which the SGLT-2 inhibitors according to Examples 1 to 5 were administered, respectively. For intravitreal injection, animals were anesthetized, and a syringe with a 31-gauge needle was used to perform intravitreal injections into the right eye of the respective animals. The test material was administered as a single dose on the day of administration. The injection volume was either 1 μL/eye or 5 μL/eye. […] Retinal examination and efficacy were assessed using retinal fluorescent fundus photographs. […] The relative levels (%) of the measured values for each individual were analyzed, with the average value of the normal control group (G1) as the reference (100%), and comparisons were made between the groups. […]", "data": [{"molecule": "B1", "values": [{"measurement": "Fluorescence intensity on 21st day", "setting": "10 μg/eye, 1 μL/eye, once (G4)", "value": 128.359, "unit": "%"}, {"measurement": "Fluorescence intensity on 21st day", "setting": "50 μg/eye, 5 μL/eye, once (G3)", "value": "125.586 ± 14.799", "unit": "%"}]}]}
